The text below walks through data of article PMC8882607 (Journal of Molecular Biology, 2022).

The target in the experiment is NTF2-like domain of human G3BP1 (residues 1-139) (human, UniProt Q13283 1-139). Briefly: ITC. On the technique in general: ITC needs no label: the signal is the heat of the interaction.
NTF2-like domain of human G3BP1 (residues 1-139), sequence (Q13283 1-139): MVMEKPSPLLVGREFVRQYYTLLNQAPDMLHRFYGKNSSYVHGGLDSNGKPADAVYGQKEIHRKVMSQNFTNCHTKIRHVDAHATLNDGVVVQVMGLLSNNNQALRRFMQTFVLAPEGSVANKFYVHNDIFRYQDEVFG

Consider MSDNGPQNQRNAPRITFGGPSDSTG [SARS-CoV-2 N_(1–25) peptide (residues 1-25 of the N protein)], for which the dH is -17.6 kcal/mol.
